# Data as given in the DeepSol protein solubility set.
# Assay: soluble on expression in E. coli; label from the status in PepcDB or PDB records
row,Sequence,soluble on expression in E. coli
1,MSETIEIDELVFSVKRSTRRRTVGVTVERDKSLVAHLPQGVALDVATRLIASKLLWVHQKLAEHGETARDDVFRIPEFVDGEGFHLLGKHYRLKLVDVPKNVTGVPSVRFEGDRILLRREQAASGGKRIEEYYTRAAHPYLNETVQRWKRIVGVEPGRFVQVMDLGYRWGSCSEDGTLNFHWRTMQLPPRIIEYVVVHELVHIKVPNHSEKFWKMIGSVMPDYESRKAWLKQKGGELLEHHHHHH,not soluble
2,MSETVSVESSVDSNINQDVNIRATYLGAHELKLAASLLYQAYHDDPVFLDIFKSDKEDYEQRLRGAIREELNAFWQAKQPMIGLYLGEAMVGVACINSPDETLASDRFWHWRLKMLLNAGYFSTKQMMQKEHTVLAAVPLKIFHFLSFIAVHPLHQQHGFGHYLMAAVNTVLDEHPDSEGVAVYATSGKFKEFFKQVDYHTVKEVTVGNVCGSVMVHYRDKEE,soluble
3,MSEVKVITGTSAAAEAAKLADVDVIAAYPITPQTTCVEKLADFVANGELNAEYIKVESEHSAMSASIAASATGARTFTATSSQGLALMHEVLFAAAGMRVPVVMMNANRALSAPINIWNDQQDSLSQRDTGWIQLYAEDNQEVLDLVIQAFKIAEDEKVLLPVMVNLDGFILTHTVEPVTLPKQESVLDFIGSYEPKHAYLDPKKPMTQGSLGDPNYYMETRYAIETAMRNAEKVIADVHDAFAEKFNRAYGNGLIESYNLEKAENVIVAMGSICGTIKDMIDLKKKEGVEIGLLKIRCYRPLPVEMIKDALKNAKNVAILDKSISLGMNKGAIYADVASFLKDKKTVNYIVGLGGRDITPEDILGIYVDVETSEDGKTNWVGLKEE,not soluble
4,MSEVTRSLLQRWGASLRRGADFDSWGQLVEAIDEYQILARHLQKEAQAQHNNSEFTEEQKKTIGKIATCLELRSAALQSTQSQEEFKLEDLKKLEPILKNILTYNKEFPFDVQPI,soluble
5,MSEYNPCLDCGACCGYFRVSFFWGECQSAGGVVPDDLVVQINPTRVAMIGTDAKPCRCVSLQGEIGKEVACTIYANRSSPCREFDASWEGGVHNPSCDDARAAYGLPPLTPPEANEPHWPDDGAEVALEHHHHHH,soluble
6,MSFCSFFGGEVFQNHFEPGVYVCAKCSYELFSSHSKYAHSSPWPAFTETIHPDSVTKCPEKNRPEALKVSCGKCGNGLGHEFLNDGPKRGQSRFCIFSSSLKFVPKGKEAAASQGHLEHHHHHH,soluble
7,MSFFNPPANSNHGYNDDVNTGYNARMHSKLAEREGFHLGNGSDEPRTLYVGNLDSTVTEDFIATLFNQIGSVTKTKVIFDGSNDPYAFVEFSDHGQASQALQTMNKRLLLDREMKVNWAVEPGQQQSKIDTTRHFHVFVGDLSSEVDNQKLREAFQPFGDVSDAKVIRDTNTTKSKGYGFVSYPKREEAERAIEQMNGQWLGRRTIRTNWATRKPGDQEKPSHYNEKSYDEIYNQTSGDNTSVYVGNIASLTEDEIRQGFASFGRITEVRIFKMQGYAFVKFDNKDAAAKAIVQMNNQDVGGQLVRCSWGKTGDTGKTPGGSYGYGYGNSSSGGNSQPYSGYGGGGAYGGGQGGGGHGGPGQQQSNANSQYWQYYAQYYNNPQLMQQWSNYWQQQGGAPQQQNSGGHQ,not soluble
8,MSFFVNRIWYGNHFLQWILVPFSWLYRIVIRTRRWYLQRFCQQLYPIPIIVVGNVTVGGVGKTPLVIEIAKKIQQKGLKVGIVSRGYKAAIKHFPYEVKLNDSAELVGDEPLMMARKINCPVVIAPKRNEAVRYLLDKHSVEIIISDDGLQHYKMGRSIEIVVIDGMRKLGNGFCLPAGPLREPDSRLKQVDFVIVNQGAAEGTYSMELIPKNIVRLSTQEEVSNDLFTSEVAAVAGIGNPQRFYSTLSQLGIKFNPYSYPDHHQFKPHDLNDIDLPVIMTEKDAVKCYSFSSDKLYYLPVEAKLNDSFWEAFWSHQQLQGYYLEHHHHHH,not soluble
9,MSFLKCGVCTEDYSNVITNRHPKNLTCGHSICKACSSKLVSNFKILCPFCRKTTELRENENLQTNFALLEAISLFNDINESVTEPRSSGAPPNCEEHTYNLAEFVCISPNCSSRSKLMCRTCEEFGVHAGHRKGLLQVEAKKVRQNLLERQRKLQVNKKQVDDKIQALEKAALKKNDELYKEKYDEITRHYDRIRSSVAEREKTSKEVLKKSVLTSEEDNRMGQISNHVIRHLLEKKCEEVEQLVGMTDFELYRVKDKVDWNDESFSFSDVKEKPPMELKTLHVKLPEFRFEDSS,not soluble
10,MSFNPTRDDFEALLNDSMGGRDFAEGTVVKGKVVGIEKDFAIIDVGLKTEGRVQLKEFGVDENGKATVKAGDTVEVFLERLENAMGEAVISREKAKREEAWTRLEGVYARNEPVMGAIVGRVKGGFTVDLGGASAFLPGSQVDIRPVRDVGPLMGKEQPFAILKMDRPRGNIVVSRRAILEEARAEQRTELVSQLQEGEIREGVVKNITDYGAFVDLGGIDGLLHVTDMSWKRVNHPSQVLAVGDTVKVQIVKINPDTQRISLGMKQLQSDPWDGVEAKYPVGAKFTGRITNITDYGAFVELEAGVEGLVHVSEMSWTKKNVHPGKIVSTSQEVDVVVLDVDPSKRRVSLGLKQALANPWEAFLEAHPVGSTVEGEVKNATEFGLFVGLDNDIDGMVHLSDIDWSVPGEEAMARYKKGDMVKAKVLDVDVEKERISLGIKQLAGDPMSGDTYRKNQTVTVTVTEVTSGGIEVRFGEDDAPMTAFIRKSDLSRDRQEQRPERFAVGDRVDAQITNVDKAARRVSLSIKSLEMAEEKEAIEQFGSSDSGASLGDILGAALRERASKD,soluble
11,MSFPTSITDHPIVQEAVHRLDDLGDPRAGQTLTRCLNDTLARTIRPMPDGTAFVVTGDIPAMWLRDSSTQMMPYLALLKDDTALQHLLLAVLRRQFQQIAHDPYANAFNAEPSGRAHDPEDLCGDPWVWEQKYEVDSLAFPLLLAHRFWAATGRTDHVPGMLRTARTVISVWRTEQDHERLSTYRFRRENGPSSDTLPNAGRGTPVTRTGMTWSGFRPSDDACAFGYNVPANLCAAAALDGAAELAHHTHDTELAEDAARLAAELRAATARHGTVRHPDFGSIYAYEVDGNGNAVLMDDANMPGLLSLPLVANIPTTDPVYLATRGFVLSPRNPTWYRGTAAEGIGSPHTPDEHIWPIAIAVQGLTSNDTTERRWALTTLLATDAGTGQMHESFHKDDPHRFTRPWFSWANAMYAELALDTVGLGTRPLWQAGTLEHHHHHH,soluble
12,MSFQLHPDTTLDVVHLYVSNVKKSLEFYTEVLSMKVLKEEEAVVTFGNENDEPLLIIEEKKEAFPKQRGRTGLYHYAILLPSRQDLANVLRHLVEMVYPLHGGADHYFSEALYLADPDGNGIEIYHDRQKEVWRDENGELPFVSNPLAGEELLQQGSTWNGFPAGTVMGHIHFHVADLEEAKCFYVDGLGFEVTIPARNGALFVSAGGYHHHIGLNTWQGEGVPPQMPGSVGLKYFTIVLADEKQKEQVCESLKNIGKIATYKDGILQVEDPFGHCIHFKIKGEA,not soluble
13,MSFQQPQASPISPGDSGWLIKMRKNRYLDHTSKVNEPKKYRSMDQLPTGKVGAPDNEKSEGTDPLHWQLRKDFHLAKYSERRASYHVESSSYIHSSQQIQHPPQQHHPPPPSPPPVAETIQHQPHPSQQQPSTTTISSRQLYKSQLLYPPGSTENIASEHKPAIRPPEKSVYENNPIAPSELNVQVKRAPPQGPPPPPPPQAPADIDYPERLMSPPPTHQPRSILKGYSSQQYYSQTNLTESHHHQSSQETSLNPQQMHPRPSDRRTPTHFEDLSEDEKTRIMHENLQRHRNMRSGPNGPRPTTTSFNGPFFRLEQVNPGQNQPQQPQYQQHPRSQSVDPSGDMNGGPRPIHQNFSASEIELHHYSRNAEPSVVVWPPVSEKERERPSSVLAKNFNDPERIDEYQRQKRLEYEAIQRTNEKQAVSMAKQVNAMMQQQKLYERSHGMTSPVPIMESISPQPQVSHHHHQPQQHQQHQPQQQYYPSPPPPPQPYRDPEPVFNPVQVYETRPISALSDQIDQPPSQQAPTSWKRTYIVERPRDVAKNEIITSDQLLEKEAYDVDLLKRRETFVEKPEEAPRINRLGRRWQPPPERPYVWPTLRRAMSVEPSSMPVDFAPGVPHNYDDNEEYKWEPVVNDPGYKKEDKNFTPVNSPPASPRRGHGVGPLDEPARRQAKYVIQPSPDGSHRPKAVFRKERHAPSGGFYPHAPNAIKVVKKRAQSVQGLLSPTDNVEVIHQRNYHRLDLEQNGHHGQKLRRSQHGGSEMDLRRSTQEMPDWEKIYELPPHSSQIVQKDMPRHVDVQRRLSKFEGSIQNLRAATSTQHLDSMQQLHFPMPDYEPPQPPQQRRRTESSGYRGGPPPPPPMPQQQPREMSRRNSVASTRIDSPSLMIPHHRQSRSDSRGPPQMSRAASSIPLSPQPTPQHHHHHHSQRPTTPGATRARNYIARATAPSPTPYSYDRARAYVPPALPPGYRLADPIPDQRAMSPSPGHTRKLIRNVSESAQRLHPSGSTPQTSRAPSRHSHRQSPNPRFL,not soluble
14,MSGFDLIIFDCDGVLVDSEIIAAQVESRLLTEAGYPISVEEMGERFAGMTWKNILLQVESEASIPLSASLLDKSEKLLDMRLERDVKIIDGVKFALSRLTTPRCICSNSSSHRLDMMLTKVGLKPYFAPHIYSAKDLGADRVKPKPDIFLHGAAQFGVSPDRVVVVEDSVHGIHGARAAGMRVIGFTGASHTYPSHADRLTDAGAETVISRMQDLPAVIAAMAEWEGAF,soluble
15,MSGKRKLEDYKSIIGEEEVSKIQEKAEKLKGRSFVHVNSTSFGGGVAEILHSLVPLLRSIGIEARWFVIEGPTEFFNVTKTFHNALQGNESLKLTEEMKELYLNVNRENSKFIDLSSFDYVLVHDPQPAALIEFYEKKSPWLWRCHIDLSSPNREFWEFLRRFVEKYDRYIFHLPLEHHHHHH,not soluble
16,MSGRPFLLIHTFKDISKFREGDRDYSDIEVRYNIPWRLRIFKKEGFLGLKLYCEKEECIETKKWTFKTKFTMKLVAVDLPSSQSDFNNSFLLKHTFNNISKFVERDSDYSDAEDHYNIAWKIRILKYEECLGIYLDCQKEIYEGRKWSIKCEFKSSLISASGKFYSVQYTDVFDNRDSSMGSSTFISWIDMEKEYVTNDDCIDVTIHAKIISITDEPCEMKTFALSHTIKNMSSIREGEDYDTDTQYRFNIPWSLKILNRNEFSGLFIRCEKQLCKSRKWSIETEYQLKIVSPNGRSELFGGTYVFDNPNIYGWHIIRWSSLEDRYIVNDTLTVEAQVTIVKMTGIEDETPIEKPSGIVIPVGNQEFSLERWMEMAFDH,not soluble
17,MSGSHHHHHHSSGIEGRGRLQTRQDVLYLYNWTYYTPTSLIKKFEQQYNVQVVYDDYASNEDMFAKLSIGASGYDLVVPSGDFVSIMKRKHLLEKIDLSKIPNVQFIKESVRARIAYDPKMEYSVPYYLGAAGIAVNKKAVPSYARTWSIFSRKDLAYRMSMMDDMREVMGAALASLGYNVNTKNEQELAQAAILVTDHWKPNLVKFDSDGYAKSFASGDFVVAHGFAEAFFAETPEAMHEHIDFFIPQDVASPVYVDSFCIPKGARNRDLAHAFINFFLEPAHYAEFLDTFGFPSTIHREAAAYQKKTPYYSEHDLERGTLKTDVGAAIEHYNAHWNAVRFR,soluble
18,MSHDVKELIEGLNEDLAGEYSAIIMYNHNAATVSGIYRQVLKPFFESEISDEQGHALYLAEKIKTLGGTPTTIPLRVKQAEDVREMLEYARQSEYETIKRYEKRKEQAANLNMTELVVKLEDMIADETNHMEELDRLLNDKAMVLN,soluble
